Measurements as given in US20240245798A1 (TUBULIS, published 2024).

What was measured:
[1] = molecular target: T1, recombinant hexameric human C1q complement protein (human, UniProt P02745 23-245; P02746 28-253; P02747 29-245, limits assumed); test: HTRF human C1q binding assay (Cisbio)
T1 construct: Described only as recombinant hexameric C1q; also called complement factor C1q

[2] = molecular target: T2, purified recombinant human 5T4 antigen, extracellular domain as 6x-Histidine fusion protein (glycosylated) (human, UniProt Q13641 32-355); test: ELISA on immobilized recombinant human 5T4 ECD-6xHis; apparent KD, one-site specific binding fit
T2 construct: Expressed in Expi-HEK293; also called glycosylated 5T4; recombinant immobilized human 5T4 antigen; not shown: 6x-Histidine tag
T2 sequence: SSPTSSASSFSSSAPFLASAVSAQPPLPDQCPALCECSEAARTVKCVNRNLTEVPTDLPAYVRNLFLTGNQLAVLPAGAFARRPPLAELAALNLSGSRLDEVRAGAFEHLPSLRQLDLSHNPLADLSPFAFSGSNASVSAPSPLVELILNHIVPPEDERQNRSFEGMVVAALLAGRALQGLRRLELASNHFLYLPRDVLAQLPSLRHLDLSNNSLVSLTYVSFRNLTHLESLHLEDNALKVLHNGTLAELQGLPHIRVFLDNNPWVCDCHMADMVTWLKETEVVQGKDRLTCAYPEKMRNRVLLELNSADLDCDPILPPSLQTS

[3] = molecular target: T3, purified recombinant human 5T4 antigen, extracellular domain as 6x-Histidine fusion protein, de-glycosylated … (human, UniProt Q13641 32-355, de-glycosylated with PNGase F over night at 37 C); test: ELISA on immobilized PNGase F-treated recombinant human 5T4 ECD-6xHis; apparent KD, one-site specific binding fit
T3 construct: Same construct as m5 after PNGase F treatment; also called de-glycosylated 5T4; not shown: 6x-Histidine tag
T3 sequence: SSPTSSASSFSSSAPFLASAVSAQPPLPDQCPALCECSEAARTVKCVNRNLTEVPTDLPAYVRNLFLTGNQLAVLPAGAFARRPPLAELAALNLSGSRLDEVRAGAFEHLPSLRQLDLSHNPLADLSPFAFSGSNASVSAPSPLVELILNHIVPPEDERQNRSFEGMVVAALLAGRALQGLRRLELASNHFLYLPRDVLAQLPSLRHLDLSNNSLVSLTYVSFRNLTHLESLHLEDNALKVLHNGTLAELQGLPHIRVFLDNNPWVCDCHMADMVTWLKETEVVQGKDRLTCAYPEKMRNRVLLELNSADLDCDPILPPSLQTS

[4] = molecular target: T4, human 5T4 (trophoblast glycoprotein, TPBG), endogenously expressed on tumor cells (human, UniProt Q13641 32-420); test: flow cytometry on MDA-MB-468 cells endogenously expressing human 5T4, 0.002 to 200 nM, one-site specific binding fit
T4 construct: the protein stood on cell lines that express it endogenously; also called endogenously expressed human 5T4; MDA-MB-468 cells
T4 sequence: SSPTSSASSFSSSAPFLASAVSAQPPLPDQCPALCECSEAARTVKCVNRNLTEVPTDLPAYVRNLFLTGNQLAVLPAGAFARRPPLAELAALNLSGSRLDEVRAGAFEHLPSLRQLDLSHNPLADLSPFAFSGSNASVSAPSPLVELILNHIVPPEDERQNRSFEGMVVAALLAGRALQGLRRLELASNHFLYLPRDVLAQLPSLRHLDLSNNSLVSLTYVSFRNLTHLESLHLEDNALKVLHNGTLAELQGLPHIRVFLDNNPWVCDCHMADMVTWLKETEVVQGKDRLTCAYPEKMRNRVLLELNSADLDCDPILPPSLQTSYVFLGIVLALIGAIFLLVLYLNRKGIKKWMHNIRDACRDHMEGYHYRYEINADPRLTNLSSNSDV

[5] = molecular target: T5, human full-length 5T4-(GGGGS)-mCherry, transiently expressed on HEK293 cells (human, UniProt Q13641 32-420); test: flow cytometry on mCherry-positive HEK293 cells transiently expressing human full-length 5T4-mCherry, one-site specific binding fit
T5 construct: also called human full-length 5T4-mCherry; not shown: mCherry fluorescent protein
T5 sequence: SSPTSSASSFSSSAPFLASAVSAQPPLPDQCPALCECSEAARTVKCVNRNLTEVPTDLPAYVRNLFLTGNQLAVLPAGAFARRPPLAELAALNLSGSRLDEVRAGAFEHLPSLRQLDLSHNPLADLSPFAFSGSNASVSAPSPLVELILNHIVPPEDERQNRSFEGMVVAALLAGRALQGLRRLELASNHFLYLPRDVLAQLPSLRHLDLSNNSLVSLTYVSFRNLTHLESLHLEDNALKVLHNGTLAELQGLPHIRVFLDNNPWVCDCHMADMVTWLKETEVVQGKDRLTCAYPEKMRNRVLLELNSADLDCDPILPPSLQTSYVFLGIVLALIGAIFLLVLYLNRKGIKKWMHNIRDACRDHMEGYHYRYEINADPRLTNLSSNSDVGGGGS

[6] = molecular target: T6, white-tufted-ear marmoset full-length 5T4-(GGGGS)-mCherry, transiently expressed on HEK293 cells (white-tufted-ear marmoset (Callithrix …, UniProt Q13641 32-420 (human entry))); test: flow cytometry on mCherry-positive HEK293 cells transiently expressing marmoset full-length 5T4-mCherry, one-site specific binding fit
T6 construct: also called marmoset full-length 5T4-mCherry; marmoset 5T4; not shown: mCherry fluorescent protein
T6 chain: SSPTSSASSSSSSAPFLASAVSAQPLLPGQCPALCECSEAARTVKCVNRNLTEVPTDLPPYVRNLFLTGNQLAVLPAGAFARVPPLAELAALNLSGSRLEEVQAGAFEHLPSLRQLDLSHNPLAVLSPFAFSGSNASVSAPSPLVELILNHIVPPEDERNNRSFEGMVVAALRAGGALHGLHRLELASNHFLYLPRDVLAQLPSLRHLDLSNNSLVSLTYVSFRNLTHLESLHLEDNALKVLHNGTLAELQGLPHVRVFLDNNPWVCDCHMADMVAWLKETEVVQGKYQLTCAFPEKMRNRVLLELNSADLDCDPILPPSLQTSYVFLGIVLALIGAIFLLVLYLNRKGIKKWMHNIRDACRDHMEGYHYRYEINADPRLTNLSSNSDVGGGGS

T1 sequence (P02745 23-245 limits assumed, chain 1 of 3): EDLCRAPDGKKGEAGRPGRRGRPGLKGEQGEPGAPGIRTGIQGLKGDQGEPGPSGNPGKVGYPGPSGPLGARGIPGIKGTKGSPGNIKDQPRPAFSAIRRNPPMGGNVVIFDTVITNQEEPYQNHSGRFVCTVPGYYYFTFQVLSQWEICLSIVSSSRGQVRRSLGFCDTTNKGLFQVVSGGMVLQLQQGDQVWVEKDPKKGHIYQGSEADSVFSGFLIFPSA
T1 sequence (P02746 28-253 limits assumed, chain 2 of 3): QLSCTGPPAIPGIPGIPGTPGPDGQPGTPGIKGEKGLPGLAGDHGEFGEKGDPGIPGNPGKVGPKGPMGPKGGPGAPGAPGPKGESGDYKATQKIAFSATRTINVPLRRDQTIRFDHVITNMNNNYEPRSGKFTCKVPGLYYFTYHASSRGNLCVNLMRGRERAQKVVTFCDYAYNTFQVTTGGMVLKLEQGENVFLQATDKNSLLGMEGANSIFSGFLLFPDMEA
T1 sequence (P02747 29-245 limits assumed, chain 3 of 3): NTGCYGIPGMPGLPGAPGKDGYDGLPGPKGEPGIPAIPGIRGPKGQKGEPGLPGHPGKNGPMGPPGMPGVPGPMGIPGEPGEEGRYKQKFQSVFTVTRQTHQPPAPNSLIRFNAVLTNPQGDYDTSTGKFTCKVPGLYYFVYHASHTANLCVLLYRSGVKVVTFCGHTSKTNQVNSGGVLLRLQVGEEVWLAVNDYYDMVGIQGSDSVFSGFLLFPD

B1: anti-TPBG antibody HC-LALA (LALA-silenced anti-TPBG antibody) (antibody)
heavy: not shown
light: EIVMTQSPDSLAVSLGERATINCKASQSVSNDVAWYQQKPGQPPKLLIYYTSSRYAGVPDRFSGSGSGTDFTLTISSLQAEDVAVYYCQQDYNSPPTFGGGTKLEIKRTVAAPSVFIFPPSDEQLKSGTASVVCLLNNFYPREAKVQWKVDNALQSGNSQESVTEQDSKDSTYSLSSTLTLSKADYEKHKVYACEVTHQGLSSPVTKSFNRGEC
notes: also called anti-TBPG antibody; anti-TPBG mAb HC-LALA
With B1 the binding result [1] was “no binding (tested: serial dilutions 280 nM-11.6 nM)”, the Kd [2] was 0.1 nM and the Kd [3] was 0.16 nM. The Kd [4] was 0.247 nM, the Kd [5] was 2.15 nM and the Kd [6] was 5.46 nM.
